Read-outs that look alike come from different tables or passages of the source. Blank lines part the entries; values can stand above or below the binder they belong to. Numbered stars: 1 amine (or outer) side, 2 acyl side, 3 side chain; on linkers, the order of the positions; unused ones are H or OH. Bridge positions count the residues as written; N and C are the ends. Square brackets hold non-standard residues; d marks the D form. NH(CH2)9CO = O=C(CCCCCCCCCN[*:1])[*:2]; NH(CH2)8CO = O=C(CCCCCCCCN[*:1])[*:2]; Aun = NCCCCCCCCCCC(=O)O
How the values were obtained:
[1] = molecular target: T1, PCSK9Δhelix (human, Chemically biotinylated in the phage ELISAs; the site is not given.); assay: phage spot ELISA
T1 construct: construct M1-Q692 with engineered TEV site, cleaved by TEV; also called His-PCSK9Δhelix; open groove PCSK9Δhelix
T1 sequence (prodomain, as listed by the source mutant limits assumed, chain 1 of 2): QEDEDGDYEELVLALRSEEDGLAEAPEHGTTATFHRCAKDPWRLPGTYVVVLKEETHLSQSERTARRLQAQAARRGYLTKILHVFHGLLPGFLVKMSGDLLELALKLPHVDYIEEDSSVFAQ
T1 sequence (chain, as listed by the source mutant limits assumed, chain 2 of 2): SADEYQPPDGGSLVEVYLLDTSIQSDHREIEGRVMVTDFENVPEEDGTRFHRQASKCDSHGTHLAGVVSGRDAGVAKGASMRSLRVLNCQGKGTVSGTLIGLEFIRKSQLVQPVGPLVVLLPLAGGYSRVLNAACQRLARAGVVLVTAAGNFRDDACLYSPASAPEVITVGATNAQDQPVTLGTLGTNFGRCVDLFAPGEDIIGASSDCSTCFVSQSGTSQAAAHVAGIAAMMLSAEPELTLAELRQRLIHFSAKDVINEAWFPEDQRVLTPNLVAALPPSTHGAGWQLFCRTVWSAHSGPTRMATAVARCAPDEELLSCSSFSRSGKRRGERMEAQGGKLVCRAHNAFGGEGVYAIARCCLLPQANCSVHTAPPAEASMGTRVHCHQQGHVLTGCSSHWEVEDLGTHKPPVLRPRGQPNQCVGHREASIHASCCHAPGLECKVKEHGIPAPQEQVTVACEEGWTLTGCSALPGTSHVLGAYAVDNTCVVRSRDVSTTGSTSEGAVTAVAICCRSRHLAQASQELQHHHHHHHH

[2] = molecular target: T2, proprotein convertase subtilisin/kexin type 9 (PCSK9) (human, UniProt Q8NBP7 31-692); assay: phage spot ELISA
T2 construct: His-tagged full-length PCSK9 in TR-FRET and SPR, biotinylated in phage ELISA; secreted protein is autoprocessed (prodomain plus catalytic/CRD chain starting at S153); also called rec.PCSK9; His-PCSK9
T2 sequence (Q8NBP7 other isoform, or with tags, fused parts or gaps limits assumed): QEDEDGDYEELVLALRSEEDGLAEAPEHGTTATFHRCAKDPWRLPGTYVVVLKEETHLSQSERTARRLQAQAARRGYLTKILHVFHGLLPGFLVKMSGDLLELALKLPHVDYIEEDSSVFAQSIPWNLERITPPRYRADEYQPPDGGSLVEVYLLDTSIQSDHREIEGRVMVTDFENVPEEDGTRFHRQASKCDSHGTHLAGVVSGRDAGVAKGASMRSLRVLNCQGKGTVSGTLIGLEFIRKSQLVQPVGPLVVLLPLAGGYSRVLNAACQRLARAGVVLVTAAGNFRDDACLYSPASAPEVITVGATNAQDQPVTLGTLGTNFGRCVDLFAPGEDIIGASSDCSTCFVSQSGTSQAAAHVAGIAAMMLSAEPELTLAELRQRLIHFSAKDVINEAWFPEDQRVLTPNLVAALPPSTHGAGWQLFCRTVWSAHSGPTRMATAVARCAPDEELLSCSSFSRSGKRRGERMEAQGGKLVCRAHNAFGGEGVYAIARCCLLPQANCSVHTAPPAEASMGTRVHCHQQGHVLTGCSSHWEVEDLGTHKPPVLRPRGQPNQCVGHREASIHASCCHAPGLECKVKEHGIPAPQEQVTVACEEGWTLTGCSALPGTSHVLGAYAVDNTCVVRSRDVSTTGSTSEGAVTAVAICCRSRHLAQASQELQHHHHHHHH
Excerpt: The binding signal of the same phage particle to NeutrAvidin was considered as non-specific binding (“noise”).

[3] = molecular target: T1, PCSK9Δhelix; assay: phage spot ELISA; remark: listed apart in the source
[4] = molecular target: T2, proprotein convertase subtilisin/kexin …; assay: phage spot ELISA; remark: listed apart in the source
[5] = molecular target: T3, His-tagged, full-length PCSK9 (human, UniProt Q8NBP7 31-692); assay: TR-FRET competition (PCSK9/EGF(A) assay); competitor EGF(A)-Fc;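 note: proximity signal from anti-His APC on PCSK9 paired with anti-Fc europium on the Fc ligand, read as normalized TR-FRET ratio across compound dilutions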
T3 construct: secreted PCSK9 is autocatalytically cleaved into prodomain and catalytic domain + CRD (from S153), which stay associated; also called His-PCSK9; proprotein convertase subtilisin/kexin type 9; not shown: His tag
T3 sequence (Q8NBP7 31-692 limits assumed): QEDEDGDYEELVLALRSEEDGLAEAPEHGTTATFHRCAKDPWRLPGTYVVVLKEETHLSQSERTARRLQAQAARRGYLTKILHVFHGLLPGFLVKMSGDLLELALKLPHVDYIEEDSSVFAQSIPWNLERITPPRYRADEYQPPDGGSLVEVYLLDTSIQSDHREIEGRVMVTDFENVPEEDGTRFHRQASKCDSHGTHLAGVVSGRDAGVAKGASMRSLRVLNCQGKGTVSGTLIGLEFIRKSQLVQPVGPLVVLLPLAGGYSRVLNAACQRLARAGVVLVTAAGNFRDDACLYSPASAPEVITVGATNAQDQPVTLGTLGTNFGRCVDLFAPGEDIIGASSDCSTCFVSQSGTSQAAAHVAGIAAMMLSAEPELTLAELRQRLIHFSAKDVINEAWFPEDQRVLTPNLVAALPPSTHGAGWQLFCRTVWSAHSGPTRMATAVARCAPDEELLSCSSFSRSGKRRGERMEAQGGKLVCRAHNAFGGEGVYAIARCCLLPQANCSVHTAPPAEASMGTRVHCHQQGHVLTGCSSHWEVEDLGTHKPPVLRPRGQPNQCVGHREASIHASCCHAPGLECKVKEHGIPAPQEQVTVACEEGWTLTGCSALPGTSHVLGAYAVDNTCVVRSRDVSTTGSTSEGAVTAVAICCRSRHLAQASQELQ

- ELISA [1]: 2.81
- s/n ratio [1]: 22.8
- ELISA [2]: 2.85
- s/n ratio [2]: 23
- ELISA [3]: 3.03
- s/n ratio [3]: 27.5
- ELISA [4]: 3.03
- s/n ratio [4]: 30.3
Binder: TAFTSWEEYLDWVGSGTRYADRGVMVYSLS [SEQ ID NO 321]

- IC50 [5]: > 50 µM
B1: Compound 102 (Ac-CRLPWNLQrIGLPC-NH2) (peptide)
peptide: Ac-CRLPWNLQ[dR]IGLPC-NH2
modifications: disulfide 1-14
SMILES: CC[C@H](C)[C@@H]1NC(=O)[C@@H](CCCNC(=N)N)NC(=O)[C@H](CCC(N)=O)NC(=O)[C@H](CC(C)C)NC(=O)[C@H](CC(N)=O)NC(=O)[C@H](Cc2c[nH]c3ccccc23)NC(=O)[C@@H]2CCCN2C(=O)[C@H](CC(C)C)NC(=O)[C@H](CCCNC(=N)N)NC(=O)[C@@H](NC(C)=O)CSSC[C@@H](C(N)=O)NC(=O)[C@@H]2CCCN2C(=O)[C@H](CC(C)C)NC(=O)CNC1=O

- ELISA [1]: 2.69
- s/n ratio [1]: 18.8
- ELISA [2]: 2.93
- s/n ratio [2]: 26.1
- ELISA [3]: 2.92
- s/n ratio [3]: 25.6
- ELISA [4]: 3.13
- s/n ratio [4]: 29.8
Binder: TAFTSWEEYLDWVGSGRGGYELNIPR [SEQ ID NO 326]

- IC50 [5]: > 50 µM
B2: Compound 105 (Ac-CRLPWnLQRIGLPC-NH2) (peptide)
peptide: Ac-CRLPW[dN]LQRIGLPC-NH2
modifications: disulfide 1-14
SMILES: CC[C@H](C)[C@@H]1NC(=O)[C@H](CCCNC(=N)N)NC(=O)[C@H](CCC(N)=O)NC(=O)[C@H](CC(C)C)NC(=O)[C@@H](CC(N)=O)NC(=O)[C@H](Cc2c[nH]c3ccccc23)NC(=O)[C@@H]2CCCN2C(=O)[C@H](CC(C)C)NC(=O)[C@H](CCCNC(=N)N)NC(=O)[C@@H](NC(C)=O)CSSC[C@@H](C(N)=O)NC(=O)[C@@H]2CCCN2C(=O)[C@H](CC(C)C)NC(=O)CNC1=O

- IC50 [5]: > 50 µM
B3: Compound 104 (Ac-CRLPWNlQRIGLPC-NH2) (peptide)
peptide: Ac-CRLPWN[dL]QRIGLPC-NH2
modifications: disulfide 1-14
SMILES: CC[C@H](C)[C@@H]1NC(=O)[C@H](CCCNC(=N)N)NC(=O)[C@H](CCC(N)=O)NC(=O)[C@@H](CC(C)C)NC(=O)[C@H](CC(N)=O)NC(=O)[C@H](Cc2c[nH]c3ccccc23)NC(=O)[C@@H]2CCCN2C(=O)[C@H](CC(C)C)NC(=O)[C@H](CCCNC(=N)N)NC(=O)[C@@H](NC(C)=O)CSSC[C@@H](C(N)=O)NC(=O)[C@@H]2CCCN2C(=O)[C@H](CC(C)C)NC(=O)CNC1=O

- IC50 [5]: > 50 µM
B4: Compound 85 (Ac-CRLPWNLQR-(Ano)-C-NH2) (peptide)
peptide: Ac-CRLPWNLQR[NH(CH2)8CO]C-NH2
modifications: disulfide 1-11
SMILES: CC(=O)N[C@H]1CSSC[C@@H](C(N)=O)NC(=O)CCCCCCCCNC(=O)[C@H](CCCNC(=N)N)NC(=O)[C@H](CCC(N)=O)NC(=O)[C@H](CC(C)C)NC(=O)[C@H](CC(N)=O)NC(=O)[C@H](Cc2c[nH]c3ccccc23)NC(=O)[C@@H]2CCCN2C(=O)[C@H](CC(C)C)NC(=O)[C@H](CCCNC(=N)N)NC1=O

- IC50 [5]: > 50 µM
B5: Compound 101 (Ac-CRLPWNLQRiGLPC-NH2) (peptide)
peptide: Ac-CRLPWNLQR[dI]GLPC-NH2
modifications: disulfide 1-14
SMILES: CC[C@@H](C)[C@H]1NC(=O)[C@H](CCCNC(=N)N)NC(=O)[C@H](CCC(N)=O)NC(=O)[C@H](CC(C)C)NC(=O)[C@H](CC(N)=O)NC(=O)[C@H](Cc2c[nH]c3ccccc23)NC(=O)[C@@H]2CCCN2C(=O)[C@H](CC(C)C)NC(=O)[C@H](CCCNC(=N)N)NC(=O)[C@@H](NC(C)=O)CSSC[C@@H](C(N)=O)NC(=O)[C@@H]2CCCN2C(=O)[C@H](CC(C)C)NC(=O)CNC1=O

- IC50 [5]: > 50 µM
B6: Compound 83 (Ac-CRLPWNLQR-(Aun)-C-NH2) (peptide)
peptide: Ac-CRLPWNLQR[Aun]C-NH2
modifications: disulfide 1-11
SMILES: CC(=O)N[C@H]1CSSC[C@@H](C(N)=O)NC(=O)CCCCCCCCCCNC(=O)[C@H](CCCNC(=N)N)NC(=O)[C@H](CCC(N)=O)NC(=O)[C@H](CC(C)C)NC(=O)[C@H](CC(N)=O)NC(=O)[C@H](Cc2c[nH]c3ccccc23)NC(=O)[C@@H]2CCCN2C(=O)[C@H](CC(C)C)NC(=O)[C@H](CCCNC(=N)N)NC1=O

- IC50 [5]: > 50 µM
B7: Compound 84 (Ac-CRLPWNLQR-(Ade)-C-NH2) (peptide)
peptide: Ac-CRLPWNLQR[NH(CH2)9CO]C-NH2
modifications: disulfide 1-11
SMILES: CC(=O)N[C@H]1CSSC[C@@H](C(N)=O)NC(=O)CCCCCCCCCNC(=O)[C@H](CCCNC(=N)N)NC(=O)[C@H](CCC(N)=O)NC(=O)[C@H](CC(C)C)NC(=O)[C@H](CC(N)=O)NC(=O)[C@H](Cc2c[nH]c3ccccc23)NC(=O)[C@@H]2CCCN2C(=O)[C@H](CC(C)C)NC(=O)[C@H](CCCNC(=N)N)NC1=O

- IC50 [5]: > 50 µM
B8: Compound 103 (Ac-CRLPWNLqRIGLPC-NH2) (peptide)
peptide: Ac-CRLPWNL[dQ]RIGLPC-NH2
modifications: disulfide 1-14
SMILES: CC[C@H](C)[C@@H]1NC(=O)[C@H](CCCNC(=N)N)NC(=O)[C@@H](CCC(N)=O)NC(=O)[C@H](CC(C)C)NC(=O)[C@H](CC(N)=O)NC(=O)[C@H](Cc2c[nH]c3ccccc23)NC(=O)[C@@H]2CCCN2C(=O)[C@H](CC(C)C)NC(=O)[C@H](CCCNC(=N)N)NC(=O)[C@@H](NC(C)=O)CSSC[C@@H](C(N)=O)NC(=O)[C@@H]2CCCN2C(=O)[C@H](CC(C)C)NC(=O)CNC1=O

- IC50 [5]: > 50 µM
B9: Compound 106 (Ac-CRLPwNLQRIGLPC-NH2) (peptide)
peptide: Ac-CRLP[dW]NLQRIGLPC-NH2
modifications: disulfide 1-14
SMILES: CC[C@H](C)[C@@H]1NC(=O)[C@H](CCCNC(=N)N)NC(=O)[C@H](CCC(N)=O)NC(=O)[C@H](CC(C)C)NC(=O)[C@H](CC(N)=O)NC(=O)[C@@H](Cc2c[nH]c3ccccc23)NC(=O)[C@@H]2CCCN2C(=O)[C@H](CC(C)C)NC(=O)[C@H](CCCNC(=N)N)NC(=O)[C@@H](NC(C)=O)CSSC[C@@H](C(N)=O)NC(=O)[C@@H]2CCCN2C(=O)[C@H](CC(C)C)NC(=O)CNC1=O

- IC50 [5]: > 50 µM
B10: Compound 100 (Ac-CRLPWNLQRIGlPC-NH2) (peptide)
peptide: Ac-CRLPWNLQRIG[dL]PC-NH2
modifications: disulfide 1-14
SMILES: CC[C@H](C)[C@@H]1NC(=O)[C@H](CCCNC(=N)N)NC(=O)[C@H](CCC(N)=O)NC(=O)[C@H](CC(C)C)NC(=O)[C@H](CC(N)=O)NC(=O)[C@H](Cc2c[nH]c3ccccc23)NC(=O)[C@@H]2CCCN2C(=O)[C@H](CC(C)C)NC(=O)[C@H](CCCNC(=N)N)NC(=O)[C@@H](NC(C)=O)CSSC[C@@H](C(N)=O)NC(=O)[C@@H]2CCCN2C(=O)[C@@H](CC(C)C)NC(=O)CNC1=O

- IC50 [5]: > 50 µM
B11: Compound 107 (Ac-CRLpWNLQRIGLPC-NH2) (peptide)
peptide: Ac-CRL[dP]WNLQRIGLPC-NH2
modifications: disulfide 1-14
SMILES: CC[C@H](C)[C@@H]1NC(=O)[C@H](CCCNC(=N)N)NC(=O)[C@H](CCC(N)=O)NC(=O)[C@H](CC(C)C)NC(=O)[C@H](CC(N)=O)NC(=O)[C@H](Cc2c[nH]c3ccccc23)NC(=O)[C@H]2CCCN2C(=O)[C@H](CC(C)C)NC(=O)[C@H](CCCNC(=N)N)NC(=O)[C@@H](NC(C)=O)CSSC[C@@H](C(N)=O)NC(=O)[C@@H]2CCCN2C(=O)[C@H](CC(C)C)NC(=O)CNC1=O
